# From US20250296995A1
# Target: recombinant Plasmodium falciparum circumsporozoite protein (CSP) (Plasmodium falciparum) (UniProt P19597)
# Experiment: cell-based or functional assay
# Chain of recombinant Plasmodium falciparum circumsporozoite protein (CSP) (Plasmodium falciparum) (P19597 21-375 limits assumed): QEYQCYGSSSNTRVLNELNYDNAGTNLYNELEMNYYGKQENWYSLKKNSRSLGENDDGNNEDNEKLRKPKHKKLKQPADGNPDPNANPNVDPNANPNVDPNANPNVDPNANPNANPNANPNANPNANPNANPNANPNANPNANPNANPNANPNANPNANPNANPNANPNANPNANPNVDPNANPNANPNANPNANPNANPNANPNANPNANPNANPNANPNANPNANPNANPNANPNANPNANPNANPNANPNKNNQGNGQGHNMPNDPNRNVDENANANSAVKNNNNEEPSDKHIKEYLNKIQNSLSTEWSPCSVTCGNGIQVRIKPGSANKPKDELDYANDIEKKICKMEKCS
binder,measurement,value
"AB-000338 ALE LS (antibody, human IgG1, kappa, V domains shown) VH: QVQLVESGGGVVQPGRSLRLSCAASGFSFSTYGMHWIRQVPGKGLEWVAIIWHDGSKEFYADSVKGRFTISRDNSKKKLYLQMNSLRAEDTAIYYCVKDDFDSSGHSYFHYWGQGTLVTVSS VL: GVVMTQSPLSLPVTLGQPASISCRSSQSLVHSDGNTYVHWFQQRPGQSPRRLIYKVSNRDSGVPDRFSGSGSGTDFTLKISRVEAEDVGVYYCMQGTQWWTFGQGTKVEIKR","Geo Mean EC50 (ug/ml), ADNKA, Donor 1",0.0035 µg/mL
same,"Geo Mean EC50 (ug/ml), ADNKA, Donor 2",0.0037 µg/mL
same,"Geo Mean EC50 (ug/ml), ADNKA, Donor 3",0.0802 µg/mL
same,"Geo Mean EC50 (ug/ml), ADNKA, Donor 4",0.0214 µg/mL
same,"GeoMean EC50 (M), ADCP",1.18e-11 M
same,"GeoMean EC50 (M), ADCP repeat, n=4",6.55e-12 M
same,"Mean EC50 (pM), ADCP",11.8 pM
same,"Mean EC50 (pM), ADCP repeat, n=4",6.6 pM
same,"Mean pEC50, ADCP",10.9
same,"Mean pEC50, ADCP repeat, n=4",11.2
"AB-000338 DEA FV LS (antibody, V domains shown) VH: QVQLVESGGGVVQPGRSLRLSCAASGFSFSTYGMHWIRQVPGKGLEWVAIIWHDGSKEFYADSVKGRFTISRDNSKKKLYLQMNSLRAEDTAIYYCVKDDFDSSGHSYFHYWGQGTLVTVSS VL: GVVMTQSPLSLPVTLGQPASISCRSSQSLVHSDGNTYVHWFQQRPGQSPRRLIYKVSNRDSGVPDRFSGSGSGTDFTLKISRVEAEDVGVYYCMQGTQWWTFGQGTKVEIK","Geo Mean EC50 (ug/ml), ADNKA, Donor 1",0.0087 µg/mL
same,"Geo Mean EC50 (ug/ml), ADNKA, Donor 2",0.0057 µg/mL
same,"Geo Mean EC50 (ug/ml), ADNKA, Donor 3",0.0272 µg/mL
same,"Geo Mean EC50 (ug/ml), ADNKA, Donor 4",0.0067 µg/mL
same,"GeoMean EC50 (M), ADCP",7.21e-12 M
same,"Mean EC50 (pM), ADCP",7.2 pM
same,"Mean pEC50, ADCP",11.1
"AB-000338 LS (antibody, V domains shown) VH: QVQLVESGGGVVQPGRSLRLSCAASGFSFSTYGMHWIRQVPGKGLEWVAIIWHDGSKEFYADSVKGRFTISRDNSKKKLYLQMNSLRAEDTAIYYCVKDDFDSSGHSYFHYWGQGTLVTVSS VL: GVVMTQSPLSLPVTLGQPASISCRSSQSLVHSDGNTYVHWFQQRPGQSPRRLIYKVSNRDSGVPDRFSGSGSGTDFTLKISRVEAEDVGVYYCMQGTQWWTFGQGTKVEIK","Geo Mean EC50 (ug/ml), ADNKA, Donor 1",0.0301 µg/mL
same,"Geo Mean EC50 (ug/ml), ADNKA, Donor 2",0.238 µg/mL
same,"Geo Mean EC50 (ug/ml), ADNKA, Donor 3",0.171 µg/mL
same,"Geo Mean EC50 (ug/ml), ADNKA, Donor 4",0.0887 µg/mL
same,"GeoMean EC50 (M), ADCP",9.19e-12 M
same,"GeoMean EC50 (M), ADCP repeat, n=4",1.08e-11 M
same,"Mean EC50 (pM), ADCP",9.2 pM
same,"Mean EC50 (pM), ADCP repeat, n=4",10.8 pM
same,"Mean pEC50, ADCP",11
same,"Mean pEC50, ADCP repeat, n=4",11
